Source: publication PMC3961655, “Methyllysine Reader Plant Homeodomain (PHD) Finger Protein 20-like 1 (PHF20L1) Antagonizes DNA (Cytosine-5) Methyltransferase 1 (DNMT1) Proteasomal Degradation*” (The Journal of Biological Chemistry, 2014)

Target: endogenous DNMT1 (human (endogenous in HeLa, HEK293, …, UniProt P26358 1-1616))
Assay: cell-based or functional assay

Chain of endogenous DNMT1 (human (P26358 whole entry): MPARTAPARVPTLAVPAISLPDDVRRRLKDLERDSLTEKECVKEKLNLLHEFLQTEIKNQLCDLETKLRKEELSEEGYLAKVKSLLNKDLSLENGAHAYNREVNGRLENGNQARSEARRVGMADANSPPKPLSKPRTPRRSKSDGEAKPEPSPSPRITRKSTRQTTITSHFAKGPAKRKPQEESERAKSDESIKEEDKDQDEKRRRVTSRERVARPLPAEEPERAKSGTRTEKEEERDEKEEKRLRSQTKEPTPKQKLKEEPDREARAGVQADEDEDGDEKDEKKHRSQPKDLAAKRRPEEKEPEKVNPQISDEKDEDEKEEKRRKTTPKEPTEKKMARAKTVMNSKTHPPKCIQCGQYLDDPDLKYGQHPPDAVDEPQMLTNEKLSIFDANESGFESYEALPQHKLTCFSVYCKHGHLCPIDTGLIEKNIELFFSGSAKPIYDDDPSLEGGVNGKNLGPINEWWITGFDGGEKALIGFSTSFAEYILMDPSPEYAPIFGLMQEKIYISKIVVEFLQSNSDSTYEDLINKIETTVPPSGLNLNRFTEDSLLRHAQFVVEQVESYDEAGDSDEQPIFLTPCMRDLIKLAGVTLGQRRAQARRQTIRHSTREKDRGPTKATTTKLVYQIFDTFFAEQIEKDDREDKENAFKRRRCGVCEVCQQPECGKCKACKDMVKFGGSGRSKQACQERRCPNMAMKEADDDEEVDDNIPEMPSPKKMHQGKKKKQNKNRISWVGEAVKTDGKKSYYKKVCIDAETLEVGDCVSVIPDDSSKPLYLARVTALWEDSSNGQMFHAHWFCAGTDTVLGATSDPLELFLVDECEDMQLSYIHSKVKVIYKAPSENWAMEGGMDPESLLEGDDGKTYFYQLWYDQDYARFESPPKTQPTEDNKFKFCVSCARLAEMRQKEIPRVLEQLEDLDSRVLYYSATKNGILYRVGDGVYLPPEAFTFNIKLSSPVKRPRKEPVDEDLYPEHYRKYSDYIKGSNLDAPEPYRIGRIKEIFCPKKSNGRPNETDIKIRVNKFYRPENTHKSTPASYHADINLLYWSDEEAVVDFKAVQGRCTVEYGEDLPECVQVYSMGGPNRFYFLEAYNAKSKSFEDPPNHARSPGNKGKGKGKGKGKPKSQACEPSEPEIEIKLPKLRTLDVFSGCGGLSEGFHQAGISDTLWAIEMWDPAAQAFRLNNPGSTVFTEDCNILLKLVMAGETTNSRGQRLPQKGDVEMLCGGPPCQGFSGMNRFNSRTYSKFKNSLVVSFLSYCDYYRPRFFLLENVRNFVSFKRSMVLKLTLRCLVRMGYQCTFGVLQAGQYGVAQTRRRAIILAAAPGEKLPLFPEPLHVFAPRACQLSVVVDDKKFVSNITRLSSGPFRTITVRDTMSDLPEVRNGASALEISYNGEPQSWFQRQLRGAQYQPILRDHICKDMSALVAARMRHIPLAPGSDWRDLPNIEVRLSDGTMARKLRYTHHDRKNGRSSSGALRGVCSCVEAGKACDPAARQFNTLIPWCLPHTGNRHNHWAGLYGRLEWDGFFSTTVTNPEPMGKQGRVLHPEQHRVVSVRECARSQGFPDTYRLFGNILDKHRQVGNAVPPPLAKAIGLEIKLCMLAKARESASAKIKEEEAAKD

B1: endogenous PHF20L1a (natural protein, UniProt A8MW92 1-1017, looked up)
chain: MSKKPPNRPGITFEIGARLEALDYLQKWYPSRIEKIDYEEGKMLVHFERWSHRYDEWIYWDSNRLRPLERPALRKEGLKDEEDFFDFKAGEEVLARWTDCRYYPAKIEAINKEGTFTVQFYDGVIRCLKRMHIKAMPEDAKGQVKSQHPLSWCCPIDPAGSCNQSMGSEDWIALVKAAAAAAAKNKTGSKPRTSANSNKDKDKDERKWFKVPSKKEETSTCIATPDVEKKEDLPTSSETFGLHVENVPKMVFPQPESTLSNKRKNNQGNSFQAKRARLNKITGLLASKAVGVDGAEKKEDYNETAPMLEQAISPKPQSQKKNEADISSSANTQKPALLSSTLSSGKARSKKCKHESGDSSGCIKPPKSPLSPELIQVEDLTLVSQLSSSVINKTSPPQPVNPPRPFKHSERRRRSQRLATLPMPDDSVEKVSSPSPATDGKVFSISSQNQQESSVPEVPDVAHLPLEKLGPCLPLDLSRGSEVTAPVASDSSYRNECPRAEKEDTQMLPNPSSKAIADGRGAPAAAGISKTEKKVKLEDKSSTAFGKRKEKDKERREKRDKDHYRPKQKKKKKKKKKSKQHDYSDYEDSSLEFLERCSSPLTRSSGSSLASRSMFTEKTTTYQYPRAILSVDLSGENLSDVDFLDDSSTESLLLSGDEYNQDFDSTNFEESQDEDDALNEIVRCICEMDEENGFMIQCEECLCWQHSVCMGLLEESIPEQYICYICRDPPGQRWSAKYRYDKEWLNNGRMCGLSFFKENYSHLNAKKIVSTHHLLADVYGVTEVLHGLQLKIGILKNKHHPDLHLWACSGKRKDQDQIIAGVEKKIAQDTVNREEKKYVQNHKEPPRLPLKMEGTYITSEHSYQKPQSFGQDCKSLADPGSSDDDDVSSLEEEQEFHMRSKNSLQYSAKEHGMPEKNPAEGNTVFVYNDKKGTEDPGDSHLQWQLNLLTHIENVQNEVTSRMDLIEKEVDVLESWLDFTGELEPPDPLARLPQLKRHIKQLLIDMGKVQQIATLCSV
- half-life of DNMT1 in HeLa cells with cycloheximide, 60 uM UNC1215 (MBT domain inhibitor) against ethanol: ~50%
